Test: soluble on expression in E. coli; label from the status in PepcDB or PDB records

Sequence | soluble on expression in E. coli
MGFEDGFYTILHLAEGQHPNSKIPGGMYASSKDGKDVPVTAEPLGPQSKIRWWIARDPQAGDDMYTITEFRIDNSIPGQWSRSPVETEVPVYLYDRIKAEETGYTCAWRIQPADHGADGVYHIVGNVRIGSTDWADLREEYGEPQVYMKPVPVIPNVYIPRWFILGYEE | soluble
MNQEYLDFELPIAELEAKIEALRAASDDKVDLTDEIKRLQKKSNELTKKTFANLDAWQVSRMARHPNRPYTLDYIEHIFTEFEELAGDRAFADDKAIVGGLARLDGRPVMVIGHQKGRSVKEKVQRNFGMPAPEGYRKALRLMEMAERFKLPIITFIDTPGAYPGIGAEERGQAEAIARNLREMAQLTVPVICTVIGEGGSGGALAIGVGDKVNMLQYSTYSVISPEGCASILWKSAEKASTAAEVMGLTASRLKELNLIDSIVQEPLGGAHRSYLEIAENLKLRLKEDLAELDELSKEELLNRRYERLMSYGYC | not soluble
MAAEGKAIAKVNDLVIFVPYVVPGDVVDLQIKRKKNKYAEAEAVKFHELSPVRAVPFCQHYGVCGGCKWQVLPYSEQIRYKQKQVEDNLRRIGKIELPEISPILGSAKTEFYRNKLEFTFSNKRWLTNDEVRQDVKYDQMNAVGFHIPGAFDKVLAIEKCWLQDDISNRIRNAVRDYAYEHDYSFINLRTQEGMLRNLIIRTSSTGELMVIVICKITEDHEMELFKQLLQFIADSFPEITSLLYIINNKCNDTINDLDVHVFKGKDHMFEEMEGLRFKVGPKSFYQTNSEQAYNLYKIAREFAGLTGKELVYDLYTGTGTIANFVSRQARQVIGIEYVPEAIEDAKVNAEINEIKNALFYAGDMKDMLTQEFINQHGRPDVIITDPPRAGMHQDVVDVILFAEPKRIVYVSCNPATQARDLQLLDGKYKVKAVQPVDMFPHTHHVENVVLLELR | not soluble
MKANRSIACLLLAALPTLASAHVAEKVETLHDQALAEIPGHRGLMLTVSFKPGQVSAPHVHPGSVFVYVLEGTVQTQLEGGSVETYTVGQSWYEPANVPHLLARNPDPMKPAKLLVWELLKEGDPILKPLERGAH | not soluble
MKTIIFALNDHSPKYKQIYEKLKSLIERGDIQANEPLPSIRQLAESLNVSRNTTLMAYEQLAAEGYIRAEKRKGYFANEVEPLFIPKARISARQPAREAAAPVVVDFARRCR | not soluble
MEIGDLNEVNELVSRLNNENVKIAEVNDYIQTLSAGIEEMNVQAQQLSDFAVESSSMAEKGKEISDNVALKVSKISETSREMSNAISILAEYSKKIDEIVYVISSIASQTNLLALNASIEAARAGEAGRGFAVVAENVRELADRSKKAAEQIRDLIKEMQENTNRVIEAIQENVKVTEEVKEAIQELIAAFDDIARRANETATMVKELSEGIDEQANSVQMLVERIDSISKDVSDNLNFATQLTETVKGSIEKLEVIKNKVSQLKDELDKTLEKLEV | soluble
MAHHHHHHMKKASKNSNYHGLEKSLRRRGGKIKTIYEKYKDIDFQNIIDEKIKYVWNYINNIDDIISDEEFLKEEIKQKLEKKQSLKKNDDFDEIIYYNKNVKNLINIQKVRKALYHFNIKVDMEDIMHMFLYYTNQDYFLKFIQNNIYSKNYVERKMDKYKFTSININNLYINYEMFKFIFLNIDMNIEQNGQMW | not soluble
MFFVLSPAKNLNEKDPAPVSEFTQPDLLAESDILMQQLRELAPQQIAELMHVSDKIALLNAQRNAEWNTPFTPENAKQAVFMFNGDVYEGMDANTLDIGQIRYLQNHVRLLSGLYGLLRPLDLIQPYRLEMGTAFANLRGKNLYEFWGDIITNLLNDTLAQAGSNTLVNLASQEYFKSVNTKKLRARLITPIFKDEKNGKYKIISFYAKRARGLMVRYAAEHHITDPEMLKNFNYEGYAFNDAASNESEWVFMRSEQIK | not soluble
MAHHHHHHMESISRTYENIKNDKNNLSNAENENNGNFKAPPNGTVCCPEDLKMYSTIQLNQEIEISKNPFPLHEINKKNDIPLCAQEFSDLTDPLYIKKICLEKVPEWNHFTEDNLRVKQILSGLTNQLFEVGLKEETANNYNSIRTRVLFRIYGKHVDELYNTISEFEVYKTMSKYKIAPQLLNTFNGGRIEEWLYGDPLRIDDLKNPTILIGIANVLGKFHTLSRKRHLPEHWDRTPCIFKMMEKWKNQLFKYKNIEKYNCDIHKYIKESDKFIKFMKVYSKSDNLANTIVFCHNDLQENNIINTNKCLRLIDFEYSGFNFLATDIANFFIETSIDYSVSSYPFFEIDKKKYISYENRKLFITAYLSNYLDKSLVVPTPKLIDEILEAVEVQALGAHLLWGFWSIIRGYQTKSYNEFDFFLYAEQRLKMYDDQKEYLISNNIIKGYD | soluble
MGSDKIHHHHHHMYVGTQVAARDDEDFKVWAQLGVKNISADPPGKPASWVLDDFERLRDKVESFGLVLDMVQLPLPSRPIEQASYPDILLAGPERDRQIDAVCTMIENIAKAGIPAAKYNLNLIGIPRTEMELGRGGSLNEAWRWDKADHNADPGLAGVLSEDENWERIDYFLERVVPVAASNKVRLACHPHDPYTPPGYKGVTRVLGTIEGLKKFVQMRENPYHGLNFCQGSIGEMLDNPREEIDDIIRWFGSRDKIFNVHFRNISGGKLSFMETFPDEGDMDMVRSLKLYHELGYRYMIMPDHVPTIAGRDPVGVAFGFCYGYIAALIEALDNKHL | not soluble
MRNKILSDGAKELSYEIREIVKKADLINKNGQSIVFENIGDPIQKNNVVPQWIRETISNLTLDNKSYSYSPSKGILKTRQFLAELNNKKAGAQITADDILFFNGLGDAIAKVYQFISRSSRVIGPSPAYSTHSSAEAAHASQDPITYKLDPNNHWYPDLDDLYNKVKYNPNIIGILIINPDNPTGMVYPLETLKRIVEIAREFNLFLLSDEIYLNITYNGARAYSLAEVIEDVPGIAMKGISKEFPWPGSRCGWMEYYNRGKDQDFDKFCSALDNAKMIEVCSTTLPQLAIPVIMSDPRYLPYREELNSKIGKRSKIIAGILGQIPELMFNETYGAFYNTIVFKDGVLNDKQTLPIENAANKALVEKWISEPNVDLDKRFVYYLLAAKGICVVPISSFCSDLKGFRVTLLEENEELLEQTFTSIRDAIRLYLKS | not soluble
MGSDKIHHHHHHMMYIGLPQWQHPAWSRLGLNDLADYSRYFSCVEGNTTFYALPSREIVGRWRDMTHDNFRFCFKFPSTISHKAALQNCDSDVSLFYQCLEPIEHRIGQLWLQLPATFGPVLLPVLWRFLDALPQGFSYGVEVRHPLFFTKGDEERALNQGLQQRGINRVILKRHI | not soluble
MSLSEENVKLAEELIRKGYNEKKIRSLLKLPDEEFKLALEVARARIKAKDKFSRSDLWFDLEGLRYATHEVVADYRGRRLKGQGVKSIADVSCGVGIQLIFFAKHGIRSVGIDIDPIKIEFAKRNAEKYGVEVEWVVGDALSPEIIEKVDAEVIFSDPARPPEVPERNLEDLLPSPLKIYEAYKHKTDSFIFDLPPQIRREKVPWKGEFEYIDLFGHVNRLTFYTEPLAKAERSAVILPQGARLESNPDLENIVEETMEPERYIYEIPQSIDYADLINELFHKVNGELKLLLREKRRILATSNDEVKSEYFKRSYIVVKVMPFHPVRINDFLRREGYGRATLRMSVDEKEYWRIRKKIESGLSGDKRAFVFKVRDLAVIAEEIPQAEGHHHHHH | soluble
MGITVMARIDNYEQRFGGIGRLYTPDSLARLRQAHICVIGIGGVGSWVVEALARSGIGELTLIDMDDICVTNINRQLPAMSGTIGKLKTEVMSERVKLINPECTVNIIDDFISPENQSDYLNRGYDYVIDAIDNVKTKASLIAYCKRNKINVITIGGAGGQTDPTQIQIADLSKTIQDPLLAKVRSVLRKDYNFSQNPKRKFSIDAVFSTQPLIFPQMTEGCSTSATMNCANGFGAATMITATFGFFAVSRVIDKLLKKKSLEHHHHHH | not soluble
DRFVYTCNECKHHVETRWHCTVCEDYDLCITCYNTKNHDHKM | not soluble
QCSSEVTARYKATLLKGNSLTDLTGGFGIDCAFLAARFKSATYVERQQELCEIAAHNFPILNLNHINVKNEDGVSYLQAMSPVDCIFLDPARRNEHGGKTVAISDCEPDVAELEELLLNKAEQVMVKLSPM | not soluble
MGSDKIHHHHHHMSLASVFNIAGSGMSAQSTRLNTVASNIANAETVSSSVDKTYRARHPVFSTMFQQAQGDSGSLFADQDSSGAGVQVLGIVEDQSSLMPRYEPNHPAADANGYVYYPNVNVVEEMADMISASRAFQTNAEMMNTAKQMMQKVLTLGQ | not soluble

Reference: the DeepSol protein solubility set
